Measurements reported in publication PMC4046932.

Molecular target: Neisseria gonorrhoeae MtrD inner membrane multidrug efflux pump (Neisseria gonorrhoeae) (UniProt Q51073)
Assay: crystal structure; sitting-drop vapor diffusion at room temperature; 20 mg/ml MtrD in 20 mM Na-HEPES pH 7.5, 0.05% Cymal-6; reservoir 30% PEG 400, 0.1 M Na-Bicine pH 8.5, 0.1 M NH4Cl, 0.05 M BaCl2, 9% glycerol; space group R32, one protomer per asymmetric unit; 3.53 Å

## Neisseria gonorrhoeae MtrD inner membrane multidrug efflux pump (from UniProt Q51073 1-1067) (natural protein)
  stoichiometry N: 3
